Source: the DeepSol protein solubility set

Assay: soluble on expression in E. coli; label from the status in PepcDB or PDB records

Sequence | soluble on expression in E. coli
MSELNALLKDINGSLTATSESLERLSGIYSNSATDEIPESNQLHEHLFYDAKKPAEKVSLLSLKNGSMLGYINSLLMLIGNRLDDECKDPSAMDARERSIQHRVVLERGVKPLEKKLAYQLDKLTRAYVKMEKEYKDAEKRALEKSTLVNHSGNDDSEDDESSEDEIAYRPNTSGIINTNKKSSAYRVEETAKQENGEENDDNETGVYKPPKITAVLPPQQTHFEDRFDAREHKDRSNKSRMQAMEEYIRESSDQPDWSASIGADIVNHGRGGIKSLRDTEKERRVTSFEEDNFTRLNITNKAEKRKQKQRERNARMNVIGGEDFGIFSSKRKLEDSTSRRGAKKTRSAWDRAQRRL | soluble
MANLVYSPKDILQKEFKTKMMNGYDPIEVDEFLDNVIKDYEAYNKELLSLQEENSRLMAKLDQLSKAQPTPRVAQEVPKSAAVTNFDILKRLSNLEREVFGKKLDETPSTPVTPSAPSMPAEPANHDVDNAQTRQF | not soluble
MGSDKIHHHHHHMMPQTSLHQHVMNWAISVPGDKTLKRDIFNNIWITASQRYEYQHLTFMAQGIVELLNTEIGGVDVSIPINLFLQSTEATKYDAEMLDFAQRIVTVKDRQHIALLSENILQKMPYQPDSTSVHTTATQAFQAGQGVCQDHAHVLIAMCRALQLPARYVSGYLFDQNSPHLASHAWAEVFLDNQWYCFDVSNQLFTPKHHIYLAVGRDYLDVAPIRGVREKGGTENMMSVVQVLAC | not soluble
MFAIAHNSILRDSLAGILQLSPERVFDEYRPPPFTGNIVVGVEDLRDANLRFAVRYFLANVEKSISLFIVKQEWSENDEKFFDDLVKTEYRRAHDLNQVAIDRVNKLPDNEWKSDRLEQLNEWRTIPAINYSLLTLNDNLKNQIDALAKVTPCTISDDEEQITNKPPVLHWTADPLEGEIQFIAQLNFPLSGPDDSSFREICRLLKPHFETSYEWTGGILLTSDPVRLHVQRFNDTQIELAARICVDELEGDEADRPIRFIWPYLAVSLKQALQVLGEHPHLQYSISFVPFGSIFFKSSEIEARVFDATVFCSTALKYDKVGFRVGEDVHHVDIAHIFPDGTYPSLSRLLSMNPPSPRFSRPESVNDSVSPSLMSEPPTPGGLVAPHNRGRRVSFGTIKLMSDGPTTPEIPILNGNSNDGSAKTVDAFIDKMLQQTMDQLAV | not soluble
MCGRFAQAQTREEYLAYLADEADRNIAYDPQPIGRYNVAPGTKVLLLSERDEQLHLDPVIWGYAPGWWDKAPLINARVATAASSRMFKPLWQHGRAICFADRWFEWKKEGDKKQPYFIHRKDGKPIFMAAIGSTPFERGDEAEGFLIVTSAADKGLVDIHDRRPLALTPETARVWMRQFLEPHSKSITYRVIPALTRPMMRKDTNPCQLEHHHHHH | not soluble
MTDHNLLPEPKKILWRVSELNRNARVILEQTFPLLWVSGEISNLKRYPSGHWYFSLKDDSAQVRCVMFRHKNLYLDWIPQEGMQVEAQALVTLYEARGEFQLTVEQLRRAGLGALFEAFERLKARLQQEGLFSPEYKQPLPRFPRQIGIITSPNTAALRDVLTTLQLRLPSIPVVIYPAPVQGEGSAAAITTALHTAAVRGECDVLILCRGGGSIEDLWAFNEEIVARAIAACPIPIVTGIGHETDFTIADFVADARAPTPTGAAQLASPDRQAILHRLQYWLHRLQQTMERHIERRMQATDLLAHRLIHPGERIRHQQMHLLQLRGRLQNAWNRQVEIRTWRIEETGRRIHSAKPDIQAGIRHQQELAARLQRAMAHRLENLQFKLRQQQQHLIHLDPKAVLARGYSIAYTARGDILHDSRQTRAGDNVRLVFASGWAKADITETGE | not soluble
MSLTQIQPGVEKFIKDFNDAKKKGEHAYDMTLSYQNFDKGFFNSRFQMQMTFDNGAPDLNIKPGQKVVFDVDVEHGPLPITMLMHGNVIPALAAAKVNLVNNELTQPLFIAAKNKSPVEATLRFAFGGSFSTTLDVAPAEYGKFSFGEGQFTFNGDGSSLSNLDIEGKVEDIVLQLSPMNKVTAKSFTIDSLARLEEKKFPVGESESKFNQINIINHGEDVAQIDAFVAKTRLDRVKDKDYINVNLTYELDKLTKGNQQLGSGEWSLIAESIDPSAVRQFIIQYNIAMQKQLAAHPELANDEVALQEVNAALFKEYLPLLQKSEPTIKQPVRWKNALGELNANLDISIADPAKSSSSTNKDIKSLNFDVKLPLNVVTETAKQLNLSEGMDAEKAQKQADKQISGMMTLGQMFQLITIDNNTASLQLRYTPGKVVFNGQEMSEEEFMSRAGRFVHEGHHHHHH | not soluble
AVQRAKEVLEEISCYPENNDAKELKRILTQPHFMALLQTHDVVAHEVYSD | soluble
MEQSQRTQLSYEGAKSVIRFMSIEKRIQIHCRIPYYRKTNALFPYAHRQMTLSSDGISIGSNHYTFDIRRSNFGRRFRDDFGGESDEEPEAAPLEPALAELNLRDRARREREILREEHYQREDDERLRAQQNQVHIRYGETQYEVRRNFGQRRNPEEAFIKLFDAYISTGTTIEKLLFTGFPKFLKKRDPSKLQFKVRELKLSSLRDRTLEKIVPFIGASKLKKMNLDVGPDTISYLDLPMIKNCEVLNLNISMWNERNRQRNENNNFSKLSNLRNMKLNLILERFTIDDLQRLALNWIFTRRPIGTYFKTGVNQQYDHILDIFDRLIEENRASRCRITKLGTVYFANGVKLSIDGKSELVVYGGPKWKTRAGIDGQWTIHMEVMAVGDTTPSA | not soluble
MAHHHHHHMFLIVDAGDMLVEGLFVEANNTTLHYREKFIVKNTDGSMAINAASMTRQLHPRKQMHLHPSSLPIAIHQDNRTPLQHMLRGTHHMQRPTVVSCNTPTMAIMKGTEDVVLRRDTTTRHAGAQFRALQDLLQLKRARAGHTHLTSRSKWIGLDRQKRTPHRF | not soluble
MSLEKFVVQDIQIDGLQRVALGAALLKMPVRVGDSVDSQDVANIIKALYSSGNFEDVKVLRDGNTLMVQVKERPTIASVSFSGNKAIKEEQLKQNLEASSIRVGEALDRTTLSNIEKGLEDFYYSVGKYNATVKAVVTPLPRNRADLKFVFTEGVSAKIQQINFIGNQVFSDEELLSRFNLNVDVAWWNFLADDKYKKQVLAGDIEALRTYYLDRGYLKFQVDSTQVAISPDKKGVYITLNLNEGEPYTVSKVQFRGELMGKEAEFTSLIPFEIGETYNGSAVTRLEESVKKVLGESGYAYPQVRTIPEFDDEKQQVSLVVHVEAGKRVYVRDIRFVGNNSTRDEVLRREMRQMEGSWLNSKDIETGKTRLNRLGFFETVEVQTVRVPGSEDQVDLVYSVKEANSGNVNFGVGYGTESGVSFQVGLQQDNFLGSGNRVGVNAMINDYQKNLTLEYRDPYWNLDGVSLGGKVFYNQFEASEAGIVDYTNESYGTSLTWGFPFDELNRFEFGIGYTHNKIGNLTPYLQVENFLAAQASNIDSGGNLLTDDFDINLSWTRNNLNNSYFPTAGNHQRAFYKMTVPGSDAQYFKLQYDVRQYFPLTKKHEFTLLLRGRLGYGNGYGQTDGKDNLFPFYENFYAGGFTSLRGFGSNSAGPKAVYRDYSGSNNGSDTATDDSVGGNAIALASVELIVPTPFASEEARNQIRTSIFYDMASVWDTEFDYRGKADYGNQYYYDYSDPTNYRSSYGVALQWVSPMGPLVFSLAKPIKKYEGDDEEFFTFTIGRTFEGHHHHHH | not soluble
MEQEQRGMAALLSKFRIDYSDVYVIADIGKKPRQETMNTWQSVIDPFIAQDGSCPIGMTTKSELSAQRDKTYRQLRAGELLNEHSINADLIVMTLPVPRKGMVSSSLYMSWLEVMTRNLPPVLLVRGNQQSVNTSSSSTASSPHHLIIPALAINPHLKVFPSHISLKCFFFFRFLLKAYAAAVHPPSRFLCYMKKVTDSIFVSLMNNSRLYCLL | not soluble
MMIMREILISECIELLRSHKFIVSKPLGRSCFDMVASKEDIRLILKILKNIDSLSRDQSKELKKISKILHGTPLIIGIRTRNAPMEHGVVYDRYNIKAVTFETFRDYLEGSPPMVYANRGGFFVKIDGKVLKEVREAMGISVGKLAEVAGVSRKAIYKYETQMANPSVDVALKIEEFLDVPLVKGIDLFEPVDDEDVENKLENLEDFKKEAINFLNELGFKSFVVEKAPFDAVAEKDMDNNLNILLTNIEEKDNEEVKRKALFVRELSRLLDGYSLLILEEKEKEYKNLPVVSIEELKKMDDALELIEHIKSMLRDIR | soluble
MSLTLTEVAEFVGVSAMTVSRALRMPEKVNPELRDRIDAAVSQLGYVPNLQARNLASVHSDLILAVVPTFSSPGFLPVSEALQKVLTERGYTMMFMESGHDGQSEQKTFEKMLAYNPAAIIQFNIDTIESCTQLLANVDVPILEIGALNTHPVGMCIGVDYGKAVKQIVTHLADASLKNIALLCTPANNTMFRQLLSGWNTAMLALNRSPHRVVTTHLPSTIATGVNIFKDMMITWGDLDALICTSDEMACGCMMACHSAGIKVPNTVAIASLGGGVLSTVCSPALTTVEFPWHDIGVKAGKALLELLNDKPGEKFIEIPSVLKVRASTAEGHHHHHH | soluble
AIACGDCVEKEYPNRGNTCLENGSFLLNFTGCAVCSKRDFMLITNKSLKEEDGEEIVTYDHLCKNCHHVIARHEYTFSIMDEFQEYTMLCLLCGKAEDTISILPDDPRQMTLLF | soluble
MGSDKIHHHHHHMIDITDKQSCCGCSSCVQKCPRQCISLHEDTEGFLYPVVDKGDCIDCGLCEKVCPLLHWGEALVPMEVLAVKNKNQEERIHSSSGGVFIALSRQIIMDGGVVFGAVYDENWEVRITYSETLDGVRPMMGSKYLQARVETGFADAERFLKQGRYVLFSGTPCQIAGLHKYLRKDYPNLLSVDFLCHGVPSPGVWRRYLKETMSDLQSARRAAAGKNTVFPSLNVMPTIVGIEFRDKTLHGWKKYSFVVRGKSAFNADKNSVLLSDIHRENPFMRGFLSDIYLRPSCYECKCKNGVSHSDLTIADFWGIDRLMPDFDDDKGIGLALVNTVKGKQIFKRLSIDIRLSALSDVVALNGGFKEYRQPHPARLVFFRRFAVGETVESIVEDILRVPLWRRVMRNIKTFCKMIINRKQLTIIPLFIRRSKKRDK | not soluble
MSSSLFAPTIETIDYPFPPKPVPLSDAQKADYKARIKQLLIEKDAVLVAHYYTDPEIQALAEETGGCVSDSLEMARFGRDHPAKTLIVAGVKFMGETAKILSPEKTILMPTLEATCSLDLGCPIDKFSAFCDAHPDHTVVVYANTSAAVKARADWVVTSSIALEIVEHLDSEGKKIIWGPDRHLGSYIAKQTGAEMLMWQGDCIVHDEFKANALRDLKSVYPDAAILVHPESPASVVAMADAVGSTSQLIKAAQTMPNERFIVATDRGIFYKMQQAAPGKTLIEAPTGGNGATCKSCAHCPWMAMNGLKAIEASLSNSDKTTHEIFVDEDLRVKALIPLTRMLDFAKTLNMKVKGNALEHHHHHH | not soluble
MSIIEDNKISFVIPTINEEKTIGSVIDGIHENFPNAEIILVDTNSTDKTKEIAKSKGATVIEEPRKGYGRAYQTGIPAAKGDIIVCMDGDGTYPTDIVKPLIEILILDKVDFISCDRITFRTSTNYTTLHYVGNMVLNLTIRILFKVRMVDSQSGMWIFRSELYKKMKNLGYGMSFSQNIKIEAVRHGVFIEIPIRYGVRITKPKLKTWHDGFHNLFALFIKRVSELEHHHHHH | soluble
MSLYFNKVLGMKEFGKDEKVFYRVAIRAIILQGDKILMVKSNTGDYKFPGGGVEKGETPEETLRREVQEETGYILNEVKEKFGVLIERDRRRRMGCTIFEMTSHYYLCSVIEERGEQHLDKYEEELGFTPIWISLDEVIRENENILNQREKINPWVKRETFVLKKIKEYLNENEGHHHHHH | soluble
